Assays:
G4P [1] = target: T1, G4P (artificial (RHAU-derived), UniProt Q9H2U1 53-75); assay: competition; competitor of FAM c-KIT/KRAS G4; EMSA: 20 mM Tris-HCl pH 7.4, 75 mM KCl, 1 mM EDTA, 0.4 mg/ml BSA, 10 nM DNA, 4 C (or 37 C), 1 h; dsDNA with 30% PEG 200; pull-down: 20 mM Tris-HCl pH 7.4, 150 mM KCl, 1 mM EDTA, 0.5% Triton X-100, 4 C; settings: protein: recombinant; tags: N-terminal HIS; C-terminal GTGSGA-3xFLAG; label: 5' FAM; parallel G4
T1 chain: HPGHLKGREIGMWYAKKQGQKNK

G4P [2] = target: T1, G4P; assay: EMSA; K+; only 20% of DNA bound at saturation; low-nM Kd, number only in figure; EMSA: 20 mM Tris-HCl pH 7.4, 75 mM KCl, 1 mM EDTA, 0.4 mg/ml BSA, 10 nM DNA, 4 C (or 37 C), 1 h; dsDNA with 30% PEG 200; pull-down: 20 mM Tris-HCl pH 7.4, 150 mM KCl, 1 mM EDTA, 0.5% Triton X-100, 4 C; settings: protein: recombinant, tags: N-terminal HIS, C-terminal GTGSGA-3xFLAG, label: 5' FAM
G4P [3] = target: T1, G4P; assay: EMSA; K+; two distinct Kd values, numbers only in figure; EMSA: 20 mM Tris-HCl pH 7.4, 75 mM KCl, 1 mM EDTA, 0.4 mg/ml BSA, 10 nM DNA, 4 C (or 37 C), 1 h; dsDNA with 30% PEG 200; pull-down: 20 mM Tris-HCl pH 7.4, 150 mM KCl, 1 mM EDTA, 0.5% Triton X-100, 4 C; settings: protein: recombinant; tags: N-terminal HIS; C-terminal GTGSGA-3xFLAG; label: 5' FAM; parallel broken-strand G4

Q: Does TTCGGGCGGGCGCGAGGGAGGGTTTT (structured_DNA) [c-KIT] bind (G4P [1])?
A: Result: binds

Q: Does AGGGCGGTGTGGGAAGAGGGAAGAGGGGGAGG (structured_DNA) [KRAS] bind (G4P [1])?
A: Result: binds

Q: Does GGGGCCGGGGCCGGGGCCGGGGCC (structured_DNA) [C9orf72] bind (G4P [2]; antiparallel G4, hairpin in equilibrium)?
A: Result: binds

Q: Does AAGGGAGGGCGGCGGGGCAGGGA (structured_DNA) [PDGFR-beta] bind (G4P [3])?
A: Result: binds

Q: Does GGTTAGGGTTAGGGTTAGGGTTAGGGTTAG (structured_DNA) [Tel] bind (G4P [2]; mixed parallel/antiparallel G4)?
A: Result: binds
